How the values were obtained:
[1] = biological target: Wild-type ZIKV capsid (C) protein as N-terminal MBP fusion (MBP-CWT) (Zika virus MR766); test: cross-linking; glutaraldehyde 0, 0.25, 0.5 and 1.0 mM; MBP-C protein 0.16 mg/ml in PBS, 50 uL, room temperature, 20 min, stopped with 50 mM Tris pH 8; SDS-PAGE, Coomassie blue
[2] = biological target: N67A mutant ZIKV capsid (C) protein as N-terminal MBP fusion (MBP-C_(N67A)) (Zika virus MR766); test: as above

Substance	stoichiometry N [1]	stoichiometry N [2]
Wild-type ZIKV capsid (C) protein as N-terminal MBP fusion (MBP-CWT) (natural protein)	2	–
N67A mutant ZIKV capsid (C) protein as N-terminal MBP fusion (MBP-C_(N67A)) (natural protein)	–	2

— paper PMC10786401
